Among the data in patent US20110110942A1 are EC50 values, retold here.

In this assay the target is p75 (Homo sapiens (Human)) (UniProt P08138). The experiment in a line: ELISA, format not described.
Chain of UniProt P08138 (P08138 29-250 limits assumed): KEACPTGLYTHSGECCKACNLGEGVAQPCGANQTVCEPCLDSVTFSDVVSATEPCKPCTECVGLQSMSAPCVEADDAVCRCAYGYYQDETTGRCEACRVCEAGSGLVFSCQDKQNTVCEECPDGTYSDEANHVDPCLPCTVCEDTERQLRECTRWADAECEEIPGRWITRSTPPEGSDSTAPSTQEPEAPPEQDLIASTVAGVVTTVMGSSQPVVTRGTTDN

The substance “Amyloid Precursor Protein (from UniProt P05067 18-286) (ligand)” had an EC50 of 0.3 µM.
